Measured values: the supplement of paper PMC9112550, “Optimization of the antimicrobial peptide Bac7 by deep mutational scanning” (BMC Biology, 2022)

Tested on: Escherichia coli TOP10
Test: shrunken log2 fold change of peptide-encoding DNA abundance (4.5 h post-induction vs induction); higher = less antimicrobial activity (less host growth inhibition)
Details: time post-induction: 4.5 h; library: site-saturation at positions 5, 18, 19, 20
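Further: peptides expressed intracellularly from a pBAD plasmid library in pooled LB shake-flask culture, induced with 0.3% L-arabinose, DNA abundance read by NGS, three biological replicates, DESeq2 with apeglm shrinkage.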

Row | Sequence | shrunken log2 fold change
1 | RRIRYRPPRLPRPRPRPMPAPRP | 0.348
2 | RRIRQRPPRLPRPRPRPQADPRP | 0.0769
3 | RRIRGRPPRLPRPRPRPFHFPRP | 0.119
4 | RRIRFRPPRLPRPRPRPWTRPRP | -0.0481
5 | RRIRPRPPRLPRPRPRPSPQPRP | 0.2
6 | RRIRMRPPRLPRPRPRPMPKPRP | 0.0834
7 | RRIRHRPPRLPRPRPRPMYEPRP | -0.0116
8 | RRIRLRPPRLPRPRPRPRGRPRP | 0.149
9 | RRIRYRPPRLPRPRPRPVMRPRP | 0.0461
10 | RRIRSRPPRLPRPRPRPFNPPRP | -0.28
11 | RRIRIRPPRLPRPRPRPHGEPRP | -0.178
12 | RRIRGRPPRLPRPRPRPKENPRP | 0.791
13 | RRIRFRPPRLPRPRPRPKFIPRP | -1.02
14 | RRIRSRPPRLPRPRPRPRFWPRP | 0.269
15 | RRIRVRPPRLPRPRPRPPPSPRP | 0.897
16 | RRIRYRPPRLPRPRPRPQEPPRP | -0.273
17 | RRIRARPPRLPRPRPRPSFKPRP | -0.109
18 | RRIRFRPPRLPRPRPRPNGKPRP | 0.0809
19 | RRIRCRPPRLPRPRPRPVSHPRP | -0.0571
20 | RRIRERPPRLPRPRPRPINKPRP | -0.506
21 | RRIRLRPPRLPRPRPRPKQKPRP | 0.0979
22 | RRIRTRPPRLPRPRPRPNCNPRP | -0.353
23 | RRIRARPPRLPRPRPRPNIKPRP | -0.14
24 | RRIRDRPPRLPRPRPRPLRDPRP | 0.537
25 | RRIRARPPRLPRPRPRPPGLPRP | 0.517

Row | Sequence | shrunken log2 fold change
26 | RRIRFRPPRLPRPRPRPLPRPRP | 0.669
27 | RRIRQRPPRLPRPRPRPAEAPRP | 0.61
28 | RRIRERPPRLPRPRPRPELLPRP | -0.000642
29 | RRIRFRPPRLPRPRPRPMVPPRP | 0.0354
30 | RRIRFRPPRLPRPRPRPLSQPRP | -0.271
31 | RRIRTRPPRLPRPRPRPIITPRP | -0.645
32 | RRIRGRPPRLPRPRPRPHFLPRP | 1.03
33 | RRIRFRPPRLPRPRPRPPTAPRP | 0.429
34 | RRIRKRPPRLPRPRPRPHVEPRP | -0.0479
35 | RRIRQRPPRLPRPRPRPREIPRP | 0.115
36 | RRIRTRPPRLPRPRPRPQPLPRP | 0.284
37 | RRIRSRPPRLPRPRPRPKTRPRP | 0.156
38 | RRIRMRPPRLPRPRPRPPETPRP | 0.807
39 | RRIRRRPPRLPRPRPRPCWQPRP | 0.285
40 | RRIRNRPPRLPRPRPRPVLSPRP | 0.0114
41 | RRIRDRPPRLPRPRPRPIQPPRP | 0.00911
42 | RRIRPRPPRLPRPRPRPYAYPRP | -0.192
43 | RRIRIRPPRLPRPRPRPRAWPRP | 0.187
44 | RRIRQRPPRLPRPRPRPMGTPRP | -0.00257
45 | RRIRARPPRLPRPRPRPMSYPRP | 0.163
46 | RRIRKRPPRLPRPRPRPAFQPRP | 0.107
47 | RRIRFRPPRLPRPRPRPQTPPRP | 0.626
48 | RRIRHRPPRLPRPRPRPSRFPRP | 0.0223
49 | RRIRNRPPRLPRPRPRPFLHPRP | -0.351
50 | RRIRWRPPRLPRPRPRPRNCPRP | -0.00862

Row | Sequence | shrunken log2 fold change
51 | RRIRTRPPRLPRPRPRPVAGPRP | -0.0116
52 | RRIRPRPPRLPRPRPRPFVSPRP | -0.443
53 | RRIRLRPPRLPRPRPRPSHMPRP | -0.228
54 | RRIRARPPRLPRPRPRPVFFPRP | 0.448
55 | RRIRDRPPRLPRPRPRPFPAPRP | 0.0806
56 | RRIRIRPPRLPRPRPRPNQQPRP | 0.0352
57 | RRIRWRPPRLPRPRPRPDEPPRP | -0.00634
58 | RRIRQRPPRLPRPRPRPHLLPRP | 0.006
59 | RRIRLRPPRLPRPRPRPHHIPRP | -0.343
60 | RRIRNRPPRLPRPRPRPFRTPRP | -0.066
61 | RRIRERPPRLPRPRPRPDRNPRP | -0.25
62 | RRIRHRPPRLPRPRPRPFEQPRP | -0.283
63 | RRIRSRPPRLPRPRPRPTGVPRP | 0.0241
64 | RRIRSRPPRLPRPRPRPFDAPRP | -0.279
65 | RRIRNRPPRLPRPRPRPWLEPRP | -0.00992
66 | RRIRWRPPRLPRPRPRPIPIPRP | -0.12
67 | RRIRERPPRLPRPRPRPVNGPRP | -0.323
68 | RRIRWRPPRLPRPRPRPQKIPRP | -0.178
69 | RRIRPRPPRLPRPRPRPNDTPRP | -0.338
70 | RRIRKRPPRLPRPRPRPEIFPRP | 0.368
71 | RRIRARPPRLPRPRPRPLDKPRP | 0.332
72 | RRIRQRPPRLPRPRPRPWDKPRP | -0.153
73 | RRIRLRPPRLPRPRPRPRSNPRP | 1.62
74 | RRIRVRPPRLPRPRPRPRTDPRP | -0.191
75 | RRIRGRPPRLPRPRPRPGWLPRP | 1.17

Row | Sequence | shrunken log2 fold change
76 | RRIRPRPPRLPRPRPRPIQHPRP | -0.053
77 | RRIRQRPPRLPRPRPRPNFFPRP | 0.313
78 | RRIRPRPPRLPRPRPRPDLAPRP | 0.316
79 | RRIRYRPPRLPRPRPRPNTMPRP | -1.1
80 | RRIRLRPPRLPRPRPRPIVVPRP | -0.0319
81 | RRIRTRPPRLPRPRPRPMHFPRP | -0.0728
82 | RRIRPRPPRLPRPRPRPTVFPRP | 0.0272
83 | RRIRERPPRLPRPRPRPGIVPRP | -0.113
84 | RRIRHRPPRLPRPRPRPPIVPRP | -0.252
85 | RRIRERPPRLPRPRPRPQVFPRP | -0.0552
86 | RRIRMRPPRLPRPRPRPHAFPRP | 0.179
87 | RRIRSRPPRLPRPRPRPNELPRP | -0.295
88 | RRIRKRPPRLPRPRPRPCHMPRP | -0.538
89 | RRIRARPPRLPRPRPRPCYVPRP | -0.279
90 | RRIRFRPPRLPRPRPRPHEPPRP | -0.164
91 | RRIRIRPPRLPRPRPRPEQDPRP | 0.0197
92 | RRIRHRPPRLPRPRPRPKHQPRP | -0.195
93 | RRIRARPPRLPRPRPRPAQWPRP | 0.252
94 | RRIRWRPPRLPRPRPRPFIVPRP | -0.325
95 | RRIRSRPPRLPRPRPRPCQAPRP | 0.116
96 | RRIRNRPPRLPRPRPRPQAFPRP | -0.00429
97 | RRIRRRPPRLPRPRPRPLFEPRP | 0.245
98 | RRIRCRPPRLPRPRPRPLIMPRP | -0.689
99 | RRIRDRPPRLPRPRPRPNVTPRP | -0.282
100 | RRIRKRPPRLPRPRPRPANWPRP | 0.596

Row | Sequence | shrunken log2 fold change
101 | RRIRYRPPRLPRPRPRPRVVPRP | -0.405
102 | RRIRGRPPRLPRPRPRPHRDPRP | 0.0592
103 | RRIRQRPPRLPRPRPRPVHWPRP | 0.188
104 | RRIRTRPPRLPRPRPRPQPVPRP | -0.0826
105 | RRIRMRPPRLPRPRPRPRNPPRP | 3.17
106 | RRIRRRPPRLPRPRPRPYDNPRP | -0.636
107 | RRIRKRPPRLPRPRPRPRKMPRP | 0.588
108 | RRIRTRPPRLPRPRPRPIALPRP | -0.156
109 | RRIRLRPPRLPRPRPRPNCCPRP | -0.0382
110 | RRIRKRPPRLPRPRPRPPTVPRP | 0.266
111 | RRIRDRPPRLPRPRPRPESLPRP | 1.01
112 | RRIRQRPPRLPRPRPRPFSCPRP | -0.00804
113 | RRIRCRPPRLPRPRPRPLVNPRP | -0.841
114 | RRIRYRPPRLPRPRPRPNVKPRP | -0.386
115 | RRIRYRPPRLPRPRPRPKRTPRP | -0.0162
116 | RRIRARPPRLPRPRPRPTRYPRP | 0.356
117 | RRIRIRPPRLPRPRPRPELQPRP | -0.0107
118 | RRIRYRPPRLPRPRPRPRKHPRP | -0.483
119 | RRIRPRPPRLPRPRPRPMHAPRP | 0.159
120 | RRIRSRPPRLPRPRPRPKFPPRP | 0.0385
121 | RRIRQRPPRLPRPRPRPLQCPRP | -0.357
122 | RRIRHRPPRLPRPRPRPRASPRP | 0.286
123 | RRIRARPPRLPRPRPRPIHAPRP | 0.0915
124 | RRIRCRPPRLPRPRPRPENIPRP | -1.32
125 | RRIRYRPPRLPRPRPRPHDTPRP | -0.313
